The supplement of paper PMC10567573

B1: C8orf76 (parent)
chain: LYLQLAICSSLQNLEKTIFCLQKL
B2: PPEF2 (parent)
chain: AFKAAALIQRWYRRYVARLEMRRR

Variants of: B1
Experiment: protein stability index of a GFP-peptide fusion (GPS, HEK-293T) (PSI 1-6); higher = more stable
Conditions: c terminus: a fixed tail appended
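Note: lentivirally expressed fusions sorted by FACS into six bins by GFP to DsRed ratio, PSI derived from sequencing read proportions per bin multiplied by bin number.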

Compared with LWLQLAICSSLQNLEKTIFCLQKL [Y2W], LYLQLAICSSLFNLEKTIFCLQKL [Q12F] is lower in protein stability index: 3.02 for the first, 2.75 for the second.

Compared with LYLQRAICSSLQNLEKTIFCLQKL [L5R], LYLQLAICSSLQNLEKTRFCLQKL [I18R] is higher in protein stability index: 1.92 for the first, 2.41 for the second.

Going from VYLQLAICSSLQNLEKTIFCLQKL [L1V] to LYEQLAICSSLQNLEKTIFCLQKL [L3E], the protein stability index falls from 2.57 to 2.56.

Compared with LYLQLAICSSLQNLLKTIFCLQKL [E15L], LYLQLAICSSLQNLGKTIFCLQKL [E15G] is lower in protein stability index: 4.03 for the first, 1.69 for the second.

First: LYLQLAICSSLQNLWKTIFCLQKL [E15W]
Second: LYLQLAICSSLQNLQKTIFCLQKL [E15Q]
The protein stability index of the first is lower: 3.01 for the first, 3.27 for the second.

First: LYLQLYICSSLQNLEKTIFCLQKL [A6Y]
Second: LYLQLAICSSLQNLEKTIGCLQKL [F19G]
The protein stability index of the first is lower: 2.03 for the first, 2.83 for the second.

Going from LYRQLAICSSLQNLEKTIFCLQKL [L3R] to LYLQLAICLSLQNLEKTIFCLQKL [S9L], the protein stability index falls from 4.15 to 2.28.

First: LYLQYAICSSLQNLEKTIFCLQKL [L5Y]
Second: LYLQLAICSSLQNIEKTIFCLQKL [L14I]
The protein stability index of the first is lower: 2.57 for the first, 2.96 for the second.

Going from LYLQLAICSSLQNLECTIFCLQKL [K16C] to LYLQLAICSSLQNLEKTIFCNQKL [L21N], the protein stability index falls from 4.77 to 2.25.

First: LYLQLAICSSLKNLEKTIFCLQKL [Q12K]
Second: LYLWLAICSSLQNLEKTIFCLQKL [Q4W]
The protein stability index of the first is higher: 3.08 for the first, 1.41 for the second.

Compared with LYLQLAICSHLQNLEKTIFCLQKL [S10H], LYLQLAICSSLQYLEKTIFCLQKL [N13Y] is lower in protein stability index: 3.71 for the first, 2.21 for the second.

Variants of: B2
Experiment: as above
Conditions: c terminus: a fixed tail appended

Going from CFKAAALIQRWYRRYVARLEMRRR [A1C] to DFKAAALIQRWYRRYVARLEMRRR [A1D], the protein stability index falls from 3.54 to 2.36.

Compared with EFKAAALIQRWYRRYVARLEMRRR [A1E], FFKAAALIQRWYRRYVARLEMRRR [A1F] is lower in protein stability index: 4.09 for the first, 2.62 for the second.

First: GFKAAALIQRWYRRYVARLEMRRR [A1G]
Second: HFKAAALIQRWYRRYVARLEMRRR [A1H]
The protein stability index of the first is lower: 2.17 for the first, 2.59 for the second.

Compared with IFKAAALIQRWYRRYVARLEMRRR [A1I], LFKAAALIQRWYRRYVARLEMRRR [A1L] is higher in protein stability index: 3.77 for the first, 4.05 for the second.

Going from MFKAAALIQRWYRRYVARLEMRRR [A1M] to NFKAAALIQRWYRRYVARLEMRRR [A1N], the protein stability index rises from 3.01 to 3.6.

Compared with PFKAAALIQRWYRRYVARLEMRRR [A1P], QFKAAALIQRWYRRYVARLEMRRR [A1Q] is higher in protein stability index: 3.44 for the first, 3.52 for the second.

Compared with RFKAAALIQRWYRRYVARLEMRRR [A1R], TFKAAALIQRWYRRYVARLEMRRR [A1T] is lower in protein stability index: 3.66 for the first, 3.4 for the second.

Going from VFKAAALIQRWYRRYVARLEMRRR [A1V] to WFKAAALIQRWYRRYVARLEMRRR [A1W], the protein stability index falls from 3.96 to 1.77.

First: AAKAAALIQRWYRRYVARLEMRRR [F2A]
Second: ADKAAALIQRWYRRYVARLEMRRR [F2D]
The protein stability index of the first is higher: 3.87 for the first, 3.53 for the second.

First: AEKAAALIQRWYRRYVARLEMRRR [F2E]
Second: AGKAAALIQRWYRRYVARLEMRRR [F2G]
The protein stability index of the first is higher: 4.95 for the first, 2.87 for the second.

First: AKKAAALIQRWYRRYVARLEMRRR [F2K]
Second: ALKAAALIQRWYRRYVARLEMRRR [F2L]
The protein stability index of the first is lower: 3.04 for the first, 3.99 for the second.

Compared with AMKAAALIQRWYRRYVARLEMRRR [F2M], ANKAAALIQRWYRRYVARLEMRRR [F2N] is lower in protein stability index: 3.8 for the first, 3.3 for the second.

Compared with APKAAALIQRWYRRYVARLEMRRR [F2P], ARKAAALIQRWYRRYVARLEMRRR [F2R] is lower in protein stability index: 3.78 for the first, 3.76 for the second.

Going from AWKAAALIQRWYRRYVARLEMRRR [F2W] to AYKAAALIQRWYRRYVARLEMRRR [F2Y], the protein stability index falls from 3.79 to 3.46.

Compared with AFCAAALIQRWYRRYVARLEMRRR [K3C], AFDAAALIQRWYRRYVARLEMRRR [K3D] is higher in protein stability index: 1.86 for the first, 2.27 for the second.

First: AFEAAALIQRWYRRYVARLEMRRR [K3E]
Second: AFFAAALIQRWYRRYVARLEMRRR [K3F]
The protein stability index of the first is higher: 3.71 for the first, 2.38 for the second.

Compared with AFIAAALIQRWYRRYVARLEMRRR [K3I], AFLAAALIQRWYRRYVARLEMRRR [K3L] is lower in protein stability index: 2.66 for the first, 1.75 for the second.

Going from AFRAAALIQRWYRRYVARLEMRRR [K3R] to AFSAAALIQRWYRRYVARLEMRRR [K3S], the protein stability index rises from 3.84 to 4.09.

Going from AFYAAALIQRWYRRYVARLEMRRR [K3Y] to AFKCAALIQRWYRRYVARLEMRRR [A4C], the protein stability index rises from 2.87 to 3.15.

Compared with AFKFAALIQRWYRRYVARLEMRRR [A4F], AFKGAALIQRWYRRYVARLEMRRR [A4G] is higher in protein stability index: 3.17 for the first, 3.69 for the second.

Going from AFKKAALIQRWYRRYVARLEMRRR [A4K] to AFKMAALIQRWYRRYVARLEMRRR [A4M], the protein stability index falls from 3.27 to 2.25.

Going from AFKPAALIQRWYRRYVARLEMRRR [A4P] to AFKRAALIQRWYRRYVARLEMRRR [A4R], the protein stability index rises from 2.38 to 3.46.

Going from AFKSAALIQRWYRRYVARLEMRRR [A4S] to AFKVAALIQRWYRRYVARLEMRRR [A4V], the protein stability index rises from 2.13 to 2.55.

Compared with AFKAEALIQRWYRRYVARLEMRRR [A5E], AFKAFALIQRWYRRYVARLEMRRR [A5F] is lower in protein stability index: 4.4 for the first, 1.98 for the second.

Going from AFKAGALIQRWYRRYVARLEMRRR [A5G] to AFKAHALIQRWYRRYVARLEMRRR [A5H], the protein stability index falls from 2.94 to 2.67.

Compared with AFKAIALIQRWYRRYVARLEMRRR [A5I], AFKANALIQRWYRRYVARLEMRRR [A5N] is lower in protein stability index: 2.4 for the first, 2.11 for the second.

Compared with AFKAPALIQRWYRRYVARLEMRRR [A5P], AFKAQALIQRWYRRYVARLEMRRR [A5Q] is lower in protein stability index: 2.08 for the first, 1.85 for the second.

Going from AFKARALIQRWYRRYVARLEMRRR [A5R] to AFKATALIQRWYRRYVARLEMRRR [A5T], the protein stability index rises from 2.39 to 2.55.

First: AFKAACLIQRWYRRYVARLEMRRR [A6C]
Second: AFKAADLIQRWYRRYVARLEMRRR [A6D]
The protein stability index of the first is higher: 4.25 for the first, 3.14 for the second.

Compared with AFKAAELIQRWYRRYVARLEMRRR [A6E], AFKAAFLIQRWYRRYVARLEMRRR [A6F] is lower in protein stability index: 3.81 for the first, 2.77 for the second.

Compared with AFKAAKLIQRWYRRYVARLEMRRR [A6K], AFKAALLIQRWYRRYVARLEMRRR [A6L] is lower in protein stability index: 2.83 for the first, 2.5 for the second.

First: AFKAAPLIQRWYRRYVARLEMRRR [A6P]
Second: AFKAAQLIQRWYRRYVARLEMRRR [A6Q]
The protein stability index of the first is lower: 1.95 for the first, 3.88 for the second.

First: AFKAATLIQRWYRRYVARLEMRRR [A6T]
Second: AFKAAVLIQRWYRRYVARLEMRRR [A6V]
The protein stability index of the first is lower: 4.02 for the first, 4.97 for the second.

Going from AFKAAYLIQRWYRRYVARLEMRRR [A6Y] to AFKAAAAIQRWYRRYVARLEMRRR [L7A], the protein stability index rises from 1.75 to 4.83.

Compared with AFKAAAFIQRWYRRYVARLEMRRR [L7F], AFKAAAGIQRWYRRYVARLEMRRR [L7G] is lower in protein stability index: 3.21 for the first, 2.33 for the second.

Compared with AFKAAAIIQRWYRRYVARLEMRRR [L7I], AFKAAAMIQRWYRRYVARLEMRRR [L7M] is lower in protein stability index: 4.77 for the first, 2.25 for the second.
